Experimental findings from the PETadex activity labels are described below.

First the molecules themselves.
B1: unnamed (protein)
chain: MKFNLSEKWLIALLASSLSFNALAVGGGGDDDDPPSCETDCGYERGPDPTASSLEADDGPYNVSTINVSSFVSGFGGGTIHYPRGTSGTMGAIAVVPGFVSSESDIIWWGSRIASHGFVVITIDTNSGFDQPDSRANQLSAALDYVIDESDSSSSAISGMVDSSRLGVMGWSMGGGGSLKLATDRNLMAIIPQAPYYSGFNDFDEITTPTLIIACENDAVAPVSSHASSFYYDIPSSTDKAFLEINNGSHYCGNTGNANEDILGKYGVAWMKRFIDLDQRYDQFLCGPNHDAPYAISEYRDTCN
B2: unnamed (protein)
chain: MVVIRTTNTTPTLQVTLMTTISVRKSALFVFAATAVLFSMSAFSFNPPTEPEPDPGPSPCQTDCGFTRGPNPTASYLEASTGPYAVRTTDVSRYVSGFGGGTIHYPAGTTGEMGAIAIVPGFFASESSIQWWGPRLASHGFVVITISTNSVFDQPGSRSAQLENALDYVISQSNSPTSGILGMVDSSRVGAMGWSMGGGGTLRLASSERLSAAIPLAPWNTGSNNFDQIDTPTLIFACENDGTAPVSQHASPFYNRIPGATAKAYFEINNGQHSCANGGGSNGGLLGKYGVSWMKLHIDKDDRYNRFLCGPNHAANSAISEYRGTCPY
B3: unnamed (protein)
chain: MFNQIGKKSALSLMAAGSLMFSATALAIGGGGSGGGNNGGGGGCEADCGYERGPDPSVSLLEASTGPFSVRTSNVSSSVRGFGGGTIHYPTNTTGTMAAIVVIPGFVSPESSIAWWGPKLASHGFVVMTIGTNSGFDQPASRASQLNNALDYLIEQNGSSRSPINGMIDTDRLGVMGWSMGGGGTLRVATEGRVSAAIPLAPWDSSSSQFRSIDTPTLIFACENDSTAPVRSHADPFYDAIPDSTAKAFVELDGGGHTCANGSSGFGGSYNDVLSRLGVSWMKLHLDKDQRYNQFVCGPNHESDRSISEYRGTCPY
B4: unnamed (protein)
chain: MKNAPIRSVLATCLVAAAASALAQTTAPTSASLNASAGPLSVSTASVTAPRGFGGGTIYYPTTQARYGVIAISPGFTATQISIAWLGRRIATHGFVVITLNTLTTLDQPDSRANQLMAALNHVINSSSSAVKARIDTSRLAVAGHSMGGGGALIAARDNPTLKASYPLTPWNINSAFTTVRVPTMIVGADGDTIAPVGTHARPFYAALPGATSKAYGELNGATHFSPNSTNTPIGRYGVAWMKRFLDGDTRYSTFLCGTEHTRYATALVFDRYNQNCPY
B5: unnamed (protein)
chain: MKTSNSRRRRLAVAAGALLLAAAAHAQTNPYQKGPDPTSASLEATAGPFAVSTTSVSSSASGFGGGTIYYPTTAGSYGAIAISPGFTATQSSIAWLGRRLASHGFVVITIDTNSTLDQPASRATQLMAALNYVVNSSSSTVRSRVDANRLGVAGHSMGGGGTLIAARDNPTLKAAVPLTPWNTTKNFSSVTVPTLIIGAENDTVAPVSSHAIPFYNSLPSSTDKAYAELNGASHFAPNSSNTPIGKYSVAWMKRFVDNDTRYSPFLCGAPHTAYATSSAVSDYRSTCPY
B6: unnamed (protein)
chain: MFIMIKKSELAKAIIVTGALVFSIPTLAEVTLSETTVSSIKSEATVSSTKKALPATPSDCIADSKITAVALSDTRDNGPFSIRTKRISRQSAKGFGGGTIHYPTNASGCGLLGAIAVVPGYVSYENSIKWWGPRLASWGFVVITINTNSIYDDPDSRAAQLNAALDNMIADDTVGSMIDPKRLGAIGWSMGGGGALKLATERSTVRAIMPLAPYHDKSYGEVKTPTLVIACEDDRIAETKKYANAFYKNAIGPKMKVEVNNGSHFCPSYRFNEILLSKPGIAWMQRYINNDTRFDKFLCANENYSKSPRISAYDYKDCP
B7: unnamed (protein)
chain: MVGYLEAVANYFPDTKWANYTTGYDGGTGGQTGFYNVMLQNSPLGALSWWNASCEFHDVMVEQAADTAARVPSNYRYYIGAGSAHTMYGSDKVYSDQSGGESQTILDWVNDMLAFDPAAADPGAPSWQSVECDDCEIVLPGDPLPRSLPTAPFALDIAGNPVIRCPPFPRGPDPTPAALEADLGPFPVRSYRPFFTPGFGAGTIWYPANPNPGPFAVIAVSPGFRAPESTMAWVGPRLASNGFIVITISTQSPFDNPTSRAKQLMAALRLVAAEGRRPSPIIGRVDGDRTGLIGHSMGGGGSLIAARDNPSVDAIIPLAPWNSPAKDFSAVEAASLIVACERDEIARVSQHAKPFYDSIPAADVNKAFLEFRGADHLCVMVGNDHYATLGKYIVAWMKAFLDSDTRYDEYLCG

Substrate in the first data set: BHET
The note with it: 120 h; part of the chain shown.
Turning to B1, the plate clearing result is recorded as “not clears the plate”.

Staying with this data set, now noted: 120 h.
Consider B2, for which the plate clearing result is recorded as “not clears the plate”.
Same read-out and setting: in the case of B3 it was “not clears the plate”; in that of B4, “not clears the plate”; in that of B5, “not clears the plate”.
The same measure, in the same setting: in the case of B6 it was “not clears the plate”; in that of B7, “not clears the plate”.
